From patent US10975365B2, “Di-enzymatic chimeric endolysin” (Government of the United States of America, as represented …, priority 2018, dated 2021)

Tests used:
[1] = test system: S. pneumoniae ATCC TIGR 4; test: Bacteriolytic (turbidity reduction) assay; format: cell-based, Streptococcus pneumoniae; settings: 5 μg/ml; OD from 1.0 to 0.2 within the first 2 min; overnight culture
Procedure: (§1) In a bacteriolytic assay, bacterial culture (stationary phase) was harvested at 5,000 for 10 min at 4° C., washed twice and resuspended in PBS buffer, pH7.4. In a 96-well titration plate, the resuspended bacterial solution was mixed 1:1 (u/u) with endolysin to a final OD600 between 0.8 to 1.0. In each run, PBS was included as a negative control. Spectrophotometric readings (OD600) were taken every 15 s over 10 min on a spectrophotometer. Vmax was calculated as the slope of the linear portion and represented the endolysins activity. All experiments were conducted in triplicate to get the standard deviation.
(§2) Bacteriolytic capacity of ClyX-1 and ClyX-1 linkers were analyzed via the turbidity reduction assay against the overnight culture of S. pneumoniae ATCC TIGR 4. Both enzymes-induced lysis of the bacterial peptidoglycan caused a decrease in OD from 1.0 to 0.2 (80%) within the first 2 min of the turbidity assay at 5 μg/ml as shown in FIG. 9a. The linkers were the only difference between these two enzymes, and the unstructured region of PlyCA GyH, PlyCA CHAP, and Cpl-1 CBD provide optimal flexibility for enzymatical activity. High lytic activity correlated with data for bacterial survival after chimera treatment. ClyX-1 sterilized cultures for 5 min, causing a decrease in TIGR 4 viability of ˜6 log, at as low as 0.5 μg/ml (FIG. 9b). […]

TIGR 4 = test: Bactericidal assay (log killing), 5 min; format: cell-based, Streptococcus pneumoniae; settings: 0.5 μg/ml
Procedure: (§3) With regard to bactericidal assay, bacterial cells were diluted to 2× rich media to generate a final concentration of 5.0×10^6 CFU/ml. 100 μl of the diluted bacterial culture was added into a 96-well titration plate in triplicate and mixed with 100 μl of sterile-filtered enzymes. Plates were sealed and incubated at 37° C. for 5-60 min. After the incubation, bacterial cells were serially diluted in 10-fold increments into sterile PBS and plated on THY/TSB agar. Log killing was calculated as follows: −log[(CFU under enzyme treatment)/(CFU under PBS treatment)].
as §2, with “9b). Stability of ClyX-1 at different temperature and pH was surveyed to determine optimal conditions.” for “9b).”

[2] = test system: stationary phase S. pneumoniae TIGR 4; test: Temperature stability and pH optimum of ClyX-1 by turbidity reduction assay; format: cell-based, Streptococcus pneumoniae
Procedure: as §1
The optimal biochemical conditions for ClyX-1 against stationary phase S. pneumoniae TIGR 4 were determined using the turbidity reduction assay described above. For temperature stability, ClyX-1 was incubated at indicated temperatures (4° C., 16° C., 25° C., 37° C., 45° C., 55° C., or 65° C.)/tsb for 30 min, recovered on ice for 5 min, and subjected to the spectrophotometric analysis. For optimal pH condition, pneumococci TIGR 4 were suspended in 40 mM boric acid/phosphoric acid (BP) buffer, pH 3-10, and were challenged against ClyX-1.

S. pneumoniae strains = test: Antimicrobial spectrum of ClyX-1 by turbidity reduction assay, pneumococci; format: cell-based, Streptococcus pneumoniae; settings: 14 most frequent serotypes, Lyt 4.4, R36A and R6; 5 μg/ml, 10 min
Procedure: (§4) (b) Bactericidal effects of ClyX-1 against stationary phase S. pneumoniae R6. Different concentrations of ClyX-1 were mixed with 10^6 overnight bacterial culture for 5 min. Log killing was determined through the comparisons of PBS treatment and ClyX-1 treatment. (c)-(d) Biochemical characterization of ClyX-1. The effects of temperature stability (c) and pH (d) were evaluated. […] of ClyX-1 was assayed for lytic activity via turbidity reduction assay against stationary phase S. pneumoniae TIGR 4 cells for 10 min. Values were presented as percentage of lytic activity in a relation to activity observed for pH 7 and 37° C. (e) The host range of ClyX-1. Multiple strains of streptococci were tested for susceptibility. The bacterial cells were washed twice and resuspended in PBS to a final OD600 of 0.9-1.0. The changes of OD600 were presented after treating with […] of ClyX-1 for 10 min;
as §1, with “In each run, PBS was included as a negative control.” left out, “All experiments were conducted in triplicate to get the standard deviation.” left out

other streptococci = test: Antimicrobial spectrum of ClyX-1 by turbidity reduction assay, other streptococci; format: cell-based; settings: 5 μg/ml, 10 min
Procedure: as §4
as §1, with “In each run, PBS was included as a negative control.” left out, “All experiments were conducted in triplicate to get the standard deviation.” left out

S. pneumoniae D39 = test: Bactericidal assay on D39, ClyX-1 compared with Cpl-1 and PlyCA; format: cell-based, Streptococcus pneumoniae
Procedure: (§5) (a) Different concentrations of ClyX-1 and Cpl-1 were mixed with 10^6 overnight S. pneumoniae D39 culture for 5 min. The cells were then serial diluted and plated on the THY plates. Log killing was determined through the comparisons of PBS treatment and the enzymes treatment. (b) Female BALB/c mice were injected intraperitoneally with pneumococcus strain S. pneumoniae NS26 at a single dose at 2.95×10^7 colony forming units (CFU) per mouse. One hour after the infection, mice were intraperitoneally received a single dose of different treatments in different amount per mouse. The lines represent the percentage survival of mice for 10 days. The data was plotted as Kaplan-Meier survival curves and analyzed via the Log-rank (Mantel-Cox) test (*P<0.001; **P<0.0001);
as §3
Bactericidal assays were repeated using the three lysins at different concentrations (0.5 μg/ml to 50 μg/ml) on a different strain, D39 (FIG. 10a).

S. pneumoniae NS26 = test: Mouse systemic infection model, survival; format: in vivo, female BALB/c mice; settings: 10 days
Procedure: as §5
With regard to in vivo mouse infection models, mouse infection experiments were carried out in an ABSL-2 lab. In the mouse systemic infection model, female BALB/c mice (6-8 weeks old) were injected intraperitoneally with S. pneumoniae NS26 at a single dose of 2.95×10^7 CFU/mouse and divided randomly into multiple groups. Bacterial burden in blood and organs in mice 1 h post-infected were confirmed by plating on THY agar as described previously. One hour post-infection, these groups intraperitoneally received a single dose of 20, 40, or 80 μg/mouse of […] (n=10); 20, 40, or 80 μg/mouse of Cpl-1 (n=10); 100 μg/mouse of penicillin G (n=10); or an equal volume of PBS buffer (n=10). The survival data for all groups were recorded for 10 days.
To validate the in vitro bactericidal activity of ClyX-1, we applied a mouse systemic infection model to test the in vivo efficacy of the enzyme. Mice were challenged to a 2-days lethal-dose of 2.95×10^7 CFU. One hour after infection, the mice were intraperitoneally injected a single dose containing different amount of either ClyX-1 or Cpl-1 ranging from 20 μg-80 μg. The antibiotics control was 100 μg/mouse of penicillin G, and the negative control was as PBS, pH7.4 buffer. The mice were then observed and recorded for the survival data. All the mice treated with PBS buffer died within the first 2 days.

[3] = test system: GAS, GBS, GCS, S. uberis, S. suis and S. mutants; test: Bactericidal activity of ClyX-4 on streptococci; format: cell-based; settings: 50 μg/ml; 1 h
Procedure: (a) Bactericidal effects of ClyX-3 against five strains of stationary phase S. pneumoniae. 5 μg/ml of enzymes were mixed with 10^6 bacterial cultures for 5 min. Log killing was determined through the comparisons of PBS treatment and enzymes treatment. (b) Bactericidal effects of ClyX-4 against stationary phase streptococci. 50 μg/ml of enzymes were mixed with 10^6 bacterial culture for 1 h. Log killing was determined through the comparisons of PBS treatment and enzymes treatment;
as §3
With regard to applying the design rationale to add a C′ terminal EAD such that two EADs are disposed at each side of the CBD, the process was used to engineer endolysins for increased activity. […]

[4] = test system: other streptococci strains; test: MIC test on other streptococci strains; format: cell-based
Procedure: The MICs of enzymes and antibiotics were determined in a 96-well titration plate in triplicate. Briefly, the overnight pneumococcal culture was diluted with 2×THY to obtain a final concentration of 1×10^7 CFU/ml, and other bacterial species were diluted with 2-folded medium to 1×10^5 CFU/ml. 100 μl of the diluted bacterial culture was subjected into each well, mixing with the serial 2-fold diluted 100 μl of enzymes/antibiotics. PBS buffer was used as a negative control. The plates were sealed via parafilm and statically incubated at 37° C. incubator for 24 h. The MIC was defined as the lowest concentration of treatment that inhibited visible growth of the bacterium.
With regard to applying the design rationale to add a C′ terminal EAD such that two EADs are disposed at each side of the CBD, the process was used to engineer endolysins for increased activity. We created the ClyX-3, the full-length Cpl-1 with an additional C′ terminal PlyC CHAP, and ClyX-4, the full-length PlySs2 with an additional C′ terminal Cpl-1 EAD (GH25) (FIG. 4 and FIG. 6). These constructs were expressed and purified as soluble proteins.

[5] = incubated 30 min at indicated temperature before assay

Row | Molecule | decrease in OD in turbidity assay [1] | decrease in viability (TIGR 4) | optimal pH condition ([2]; BP buffer pH 3-10) | pH above which activity is lost (protein precipitation) ([2]; BP buffer pH 3-10) | pH below which activity is lost (protein precipitation) ([2]; BP buffer pH 3-10) | temperature above which the activity rapidly dropped [2, 5] | temperature below which the enzyme was stable with highest activity [2, 5] | susceptibility of all tested pneumococcal strains (S. pneumoniae strains) | lysis of other streptococci (other streptococci) | fold increase in activity in vitro against S. pneumoniae compared to the parental enzyme (S. pneumoniae D39; versus parental Cpl-1) | concentration at which the bacteria culture was sterilized (S. pneumoniae D39; within 5 min, tested 0.5 to 50 μg/ml) | mice rescued (survival) (S. pneumoniae NS26; 20 μg single i.p. dose 1 h after infection) | mice rescued (survival) (S. pneumoniae NS26; 40 μg single i.p. dose 1 h after infection) | mice rescued (survival) (S. pneumoniae NS26; 80 μg single i.p. dose 1 h after infection) | bactericidal activity compared with PlySs2 [3] | activity by MIC compared with parental endolysin and ClyX-2 [4]
1 | ClyX-1: chimeric endolysin, Seq. ID No. 17: Cpl-1 CBD fused between GyH and CHAP catalytic domains of PlyCA (protein, Bacteriophage, ID No. 17: Cpl-1 CBD fused between GyH and CHAP catalytic domains of PlyCA) MSKKYTQQQYEKYLAQPANNTFGLSPQQVADWFMGQAGARPVINSYGVNASNLVSTYIPKMQEYGVSYTLFLMYTVFEGGGAGNWINHYMYDTGSNGLECLEHDLQYIHGVWETYFPPALSAPECYPATEDNAGALDRFYQSLPGRTWGDVMIPSTMAGNAWVWAYNYCVNNQGAAPLVYFGNPYDSQIDSLLAMGADPFTGGSIMEEDDKPKTAGTWKQDSKGWWFRRNNGSFPYNKWEKIGGVWYYFDSKGYCLTSEWLKDNEKWYYLKDNGAMATGWVLVGSEWYYMDDSGAMVTGWVKYKNNWYYMTNERGNMVSNEFIKSGKGWYFMNTNGELADNPSFTKEPDGLITVAGSDRVAANLANAQAQVGKYIGDGQCYAWVGWWSARVCGYSISYSTGDPMLPLIGDGMNAHSIHLGWDWSIANTGIVNYPVGTVGRKEDLRVGAIWCATAFSGAPFYTGQYGHTGIIESWSDTTVTVLEQNILGSPVIRSTYDLNTFLSTLTGLITFK | 80% | ~6 log | 6.5 | above 8 | below 4 | above 45 °C | below 37 °C | susceptible | lysis of no other streptococci tested | ~100 fold | ≤ 0.5 µg/mL | 30% | 40% | 80% | – | –
2 | ClyX-4: the full-length PlySs2 with an additional C′ terminal Cpl-1 EAD (GH25); Seq. ID No. 22 (protein, Bacteriophage, the full-length PlySs2 with an additional C′ terminal Cpl-1 EAD (GH25); ID No. 22) MTTVNEALNNVRAQVGSGVSVGNGECYALASWYERMISPDATVGLGAGVGWVSGAIGDTISAKNIGSSYNWQANGWTVSTSGPFKAGQIVTLGATPGNPYGHVVIVEAVDGDRLTILEQNYGGKRYPVRNYYSAASYRQQVVHYITPPGTVAQSAPNLAGSRSYRETGTMTVTVDALNVRRAPNTSGEIVAVYKRGESFDYDTVIIDVNGYVWVSYIGGSGKRNYVATGATKDGKRFGNAWGTFKMVKKNDLFVDVSSHNGYDITGILEQMGTTNTIIKISESTTYLNPCLSAQVEQSNPIGFYHFARFGGDVAEAEREAQFFLDNVPMQVKYLVLDYEDDPSGDAQANTNACLRFMQMIADAGYKPIYYSYKPFTHDNVDYQQILAQFPNSLWIAGYGLNDGTANFEYFPSMDGIRWWQYSSNPFDKNIVLLDDEEDDKPKTAGTWKQDSKGWWFRRNNGSFPY | – | – | – | – | – | – | – | – | – | – | – | – | – | – | more active than PlySs2 | better than parental endolysins
